Assay results: paper PMC7293005 (Nucleic Acids Research, 2020)

Target: T1, 6xHis-tagged full-length Prp5p (S. cerevisiae, UniProt P21372 1-849)
T1 sequence: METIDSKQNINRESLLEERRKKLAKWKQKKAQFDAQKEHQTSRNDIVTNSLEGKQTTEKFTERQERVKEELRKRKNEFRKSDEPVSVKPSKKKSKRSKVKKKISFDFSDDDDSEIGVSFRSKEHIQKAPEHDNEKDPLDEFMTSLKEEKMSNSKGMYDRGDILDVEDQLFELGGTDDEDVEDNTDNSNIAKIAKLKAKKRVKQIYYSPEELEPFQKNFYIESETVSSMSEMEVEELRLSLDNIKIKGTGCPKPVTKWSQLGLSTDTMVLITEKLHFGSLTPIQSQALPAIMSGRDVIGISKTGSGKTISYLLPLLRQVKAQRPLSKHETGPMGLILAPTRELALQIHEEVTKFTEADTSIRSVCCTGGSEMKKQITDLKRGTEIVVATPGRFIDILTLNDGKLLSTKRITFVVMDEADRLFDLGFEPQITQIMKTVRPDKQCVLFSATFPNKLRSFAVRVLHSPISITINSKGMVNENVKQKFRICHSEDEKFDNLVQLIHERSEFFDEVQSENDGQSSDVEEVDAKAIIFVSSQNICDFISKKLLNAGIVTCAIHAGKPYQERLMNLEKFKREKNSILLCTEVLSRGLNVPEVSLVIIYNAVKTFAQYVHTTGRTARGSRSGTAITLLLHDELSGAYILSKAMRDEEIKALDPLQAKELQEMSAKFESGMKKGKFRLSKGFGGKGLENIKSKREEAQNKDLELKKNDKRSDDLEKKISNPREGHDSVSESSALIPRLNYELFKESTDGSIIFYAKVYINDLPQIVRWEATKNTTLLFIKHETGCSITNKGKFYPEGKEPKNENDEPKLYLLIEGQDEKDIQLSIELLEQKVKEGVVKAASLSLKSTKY
Assay: pull-down

binding result: binds
B1: GST-tagged Spt8p (natural protein, S. cerevisiae, UniProt P38915 1-602, looked up)
chain: MDEVDDILINNQVVDDEEDDEEMLSGLENDSKQDLEGNDDGGEDEEDDDDDDEDDDDDEDEREDDDEQEDDDGEDDAARMDKTATPTNEHQHDEQKAAAAGAGGAGDSGDAVTKIGSEDVKLSDVDGGVGSREASSSTHEASANGEVYEYYKHMLNAAQIADSYNIYPTAAIPIQTHVNALAVSRGLKYLFLGGSDGYIRKYDLLNTLEGKLSLTILQKHSLAESIQNAGILQSYWENEIPQKKSEMKLSANKTDYEPKVSPVHSLEVQSECLFILSGLQNGGITMQGVRYMEGSIAHYFKGRNGHTQIVNILRLNGQEDRFLSGSWDKRLLEWDLQTGDIVNEFKKSRSELSSLEMRPLYSSVDVSGNVNSGKENENADDDMDSLFGDEDEDEKQDAGNEPVETGDGSNGEENKEQISEESLNIVYDESVFMTSGLNGSVHIWDRRMTQSPALSLERGAGVPPWCLSACWGVDGDHVYAGRRNACVEQFDLKMPSKPIHNLKLPSISGPVSCVKAMPNNKHLLCASRDNIRLYNVEIAVDASNSTTKSSKVPFLIVPGHHGGIISNLYLDPTSRFIISTSGNRGWQGNSTDTTLIYDIDLE
